Assay results taken from WO2010047829A1.

Target: E1E2 (isolate H77), produced by transfected 293T cells (hepatitis C virus isolate H77 (genotype 1a)) (UniProt P27958)
Test: cell-based or functional assay

MAb AR3A (antibody) showed an IC50 titer, neutralization of HCVpp-H77 of 0.4 µg/mL.

MAb AR3B (antibody) showed an IC50 titer, neutralization of HCVpp-H77 of 1 µg/mL.
